T1: human CD203c expressed on the surface of KU812 cells (human, UniProt O14638 1-875)
T1 construct: whole, on cells; also called cell-surface CD203c; cell surface CD203c on KU812 cells
T1 sequence (looked up): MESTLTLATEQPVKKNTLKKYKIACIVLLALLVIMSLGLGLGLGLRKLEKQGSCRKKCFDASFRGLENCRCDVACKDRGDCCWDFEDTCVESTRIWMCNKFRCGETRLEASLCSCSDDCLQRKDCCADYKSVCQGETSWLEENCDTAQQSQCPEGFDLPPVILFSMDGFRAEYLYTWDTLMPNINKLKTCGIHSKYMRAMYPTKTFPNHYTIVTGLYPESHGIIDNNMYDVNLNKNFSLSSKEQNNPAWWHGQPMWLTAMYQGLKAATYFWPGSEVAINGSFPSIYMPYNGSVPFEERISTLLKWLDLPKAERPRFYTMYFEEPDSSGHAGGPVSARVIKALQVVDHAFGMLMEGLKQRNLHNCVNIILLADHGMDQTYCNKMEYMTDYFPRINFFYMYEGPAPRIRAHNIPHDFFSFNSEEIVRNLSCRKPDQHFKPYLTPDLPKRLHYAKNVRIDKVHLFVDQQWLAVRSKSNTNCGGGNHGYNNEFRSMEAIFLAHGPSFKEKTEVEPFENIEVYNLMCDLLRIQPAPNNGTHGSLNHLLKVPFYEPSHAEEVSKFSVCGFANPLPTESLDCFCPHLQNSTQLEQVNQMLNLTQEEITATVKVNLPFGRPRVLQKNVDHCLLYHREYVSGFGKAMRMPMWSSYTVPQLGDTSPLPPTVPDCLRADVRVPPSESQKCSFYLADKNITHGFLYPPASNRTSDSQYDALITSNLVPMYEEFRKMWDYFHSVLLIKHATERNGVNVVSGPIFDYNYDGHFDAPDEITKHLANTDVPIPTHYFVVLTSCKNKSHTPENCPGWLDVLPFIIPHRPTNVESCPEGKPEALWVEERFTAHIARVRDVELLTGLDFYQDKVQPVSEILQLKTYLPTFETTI

T2: biotinylated cynomolgus CD203c (bio-cyCD203c, Icosagen) (cynomolgus monkey, UniProt A0A2K5TKP4 31-874, biotinylated (site not stated))
T2 construct: Captured on a Biotin CAPture chip for SPR; also called cyno CD203c
T2 sequence: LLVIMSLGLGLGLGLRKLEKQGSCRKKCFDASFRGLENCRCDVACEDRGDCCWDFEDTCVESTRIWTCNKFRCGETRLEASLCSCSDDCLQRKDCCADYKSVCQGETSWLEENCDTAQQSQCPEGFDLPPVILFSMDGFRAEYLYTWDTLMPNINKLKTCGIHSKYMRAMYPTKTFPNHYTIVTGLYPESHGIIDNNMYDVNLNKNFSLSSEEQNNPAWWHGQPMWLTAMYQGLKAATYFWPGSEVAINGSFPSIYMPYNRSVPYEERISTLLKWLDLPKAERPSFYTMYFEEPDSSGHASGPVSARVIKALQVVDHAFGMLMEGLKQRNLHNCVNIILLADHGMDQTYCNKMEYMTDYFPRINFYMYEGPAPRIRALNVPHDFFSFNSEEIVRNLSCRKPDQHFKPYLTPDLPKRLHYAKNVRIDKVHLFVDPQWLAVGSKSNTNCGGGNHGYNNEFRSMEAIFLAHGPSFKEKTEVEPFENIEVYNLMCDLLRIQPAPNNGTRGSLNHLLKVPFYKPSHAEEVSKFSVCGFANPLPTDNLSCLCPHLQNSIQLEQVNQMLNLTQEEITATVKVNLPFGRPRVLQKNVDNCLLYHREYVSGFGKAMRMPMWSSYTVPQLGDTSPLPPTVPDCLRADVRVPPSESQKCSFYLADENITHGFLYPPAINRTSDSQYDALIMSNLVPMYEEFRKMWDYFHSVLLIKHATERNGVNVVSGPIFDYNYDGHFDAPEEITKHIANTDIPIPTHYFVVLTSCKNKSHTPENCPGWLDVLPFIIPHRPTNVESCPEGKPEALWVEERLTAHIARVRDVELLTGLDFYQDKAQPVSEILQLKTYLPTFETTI

T3: biotinylated human CD203c (bio-huCD203c, Acro, Cat. nr. H52H4) (human, UniProt O14638 49-875, limits assumed, biotinylated (site not stated))
T3 construct: Captured on a Biotin CAPture chip for SPR
T3 sequence (looked up): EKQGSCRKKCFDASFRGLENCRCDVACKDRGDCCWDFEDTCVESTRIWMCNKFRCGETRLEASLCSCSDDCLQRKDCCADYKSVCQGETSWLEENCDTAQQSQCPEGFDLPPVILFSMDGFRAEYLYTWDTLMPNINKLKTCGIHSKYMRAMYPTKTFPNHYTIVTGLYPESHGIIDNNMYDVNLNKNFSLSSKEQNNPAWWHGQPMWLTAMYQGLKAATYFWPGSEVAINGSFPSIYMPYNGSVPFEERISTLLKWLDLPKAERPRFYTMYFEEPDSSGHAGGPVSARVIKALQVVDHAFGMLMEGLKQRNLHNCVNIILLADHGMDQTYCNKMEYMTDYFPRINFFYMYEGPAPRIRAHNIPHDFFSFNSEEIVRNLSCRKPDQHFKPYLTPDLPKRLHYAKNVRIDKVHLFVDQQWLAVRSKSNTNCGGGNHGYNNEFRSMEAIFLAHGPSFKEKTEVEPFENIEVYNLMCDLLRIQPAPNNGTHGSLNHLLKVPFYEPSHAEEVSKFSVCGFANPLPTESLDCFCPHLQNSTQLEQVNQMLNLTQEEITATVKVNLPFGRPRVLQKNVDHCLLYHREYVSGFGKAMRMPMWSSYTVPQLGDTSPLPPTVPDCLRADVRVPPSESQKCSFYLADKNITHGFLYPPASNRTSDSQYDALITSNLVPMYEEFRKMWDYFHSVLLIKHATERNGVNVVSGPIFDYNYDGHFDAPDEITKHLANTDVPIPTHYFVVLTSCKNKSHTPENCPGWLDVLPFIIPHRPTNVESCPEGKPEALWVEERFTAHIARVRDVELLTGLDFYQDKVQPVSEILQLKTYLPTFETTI


Experiments:
[1] = biological target: T1, human CD203c expressed on the surface …; test: flow cytometry on KU812 cells, which carry both c-Kit and CD203c; signal not separated by target
Protocol: (§1) All treatments were performed on cells seeded in T75 flasks at a seeding density of 0.3e6/ml. Cells were cultured in the presence of 80 ng/ml of SCF and treated with 20 ng/ml of IL3 24 hours prior to antibody staining. Following SCF/IL3 treatment, cells were harvested and stained with live dead stain (Zombie UV Biolegend 423108). Cells were then stained with a titration of anti-CD203c antibodies/bispecifics or respective isotype controls in a 5-fold dilution series starting at 50 μg/mL and detected with Anti human-Fc AF647 antibody (JIR 109-605-098). Samples were subsequently run on a Yeti analyzer, gating on 10K live cells. Subsequent analysis was performed using FlowJo software and data represented as MFI (median fluorescent intensity).
(§2) The purified proteins were assessed for co-operative binding to both targets, CD203c and c-Kit, on KU812 cells. […] This enhanced binding translates to potent inhibition of c-Kit receptor phosphorylation by the F6/MH1 bispecific molecule when compared to monovalent anti-c-kit, which is shown in FIG. 8.

c-Kit on KU812 cells [2] = biological target: T4, c-Kit on KU812 cells (UniProt P10721 26-976, limits assumed); test: as above
T4 construct: whole, on cells; also called c-Kit receptor; CD117
Protocol: as §1, §2

human c-Kit (SPR) = human c-Kit (SPR) (human, UniProt P10721 26-520, limits assumed); test: SPR, single-cycle kinetics, Human C-kit
cyno c-Kit (SPR) = cyno c-Kit (SPR) (cyno, UniProt F6V858 26-520 (rhesus entry)); test: SPR, single-cycle kinetics, Cynomolgus C-kit
[3] = biological target: T2, biotinylated cynomolgus CD203c …; test: SPR, single-cycle protocol, Bio-cyCD203c; table gives Rmax, Chi2 and KD only
[4] = biological target: T3, biotinylated human CD203c …; test: SPR, single-cycle protocol, Bio-huCD203c; table gives Rmax, Chi2 and KD only
[5] = biological target: T1, human CD203c expressed on the surface …; test: flow cytometry on KU812 cells, which carry both c-Kit and CD203c (median fluorescence intensity); signal not separated by target; no unit follows the number, the axis is in nM and the dotted line stands at about 0.2
Protocol: as §1

c-Kit on KU812 cells [6] = biological target: T4, c-Kit on KU812 cells; test: as above
Protocol: as §1

[7] = biological target: T1, human CD203c expressed on the surface …; test: flow cytometry on KU812 cells, which carry both c-Kit and CD203c (median fluorescence intensity); signal not separated by target
Protocol: as §1

c-Kit on KU812 cells [8] = biological target: T4, c-Kit on KU812 cells; test: as above
Protocol: as §1

Chain of human c-Kit (SPR) (P10721 26-520 limits assumed): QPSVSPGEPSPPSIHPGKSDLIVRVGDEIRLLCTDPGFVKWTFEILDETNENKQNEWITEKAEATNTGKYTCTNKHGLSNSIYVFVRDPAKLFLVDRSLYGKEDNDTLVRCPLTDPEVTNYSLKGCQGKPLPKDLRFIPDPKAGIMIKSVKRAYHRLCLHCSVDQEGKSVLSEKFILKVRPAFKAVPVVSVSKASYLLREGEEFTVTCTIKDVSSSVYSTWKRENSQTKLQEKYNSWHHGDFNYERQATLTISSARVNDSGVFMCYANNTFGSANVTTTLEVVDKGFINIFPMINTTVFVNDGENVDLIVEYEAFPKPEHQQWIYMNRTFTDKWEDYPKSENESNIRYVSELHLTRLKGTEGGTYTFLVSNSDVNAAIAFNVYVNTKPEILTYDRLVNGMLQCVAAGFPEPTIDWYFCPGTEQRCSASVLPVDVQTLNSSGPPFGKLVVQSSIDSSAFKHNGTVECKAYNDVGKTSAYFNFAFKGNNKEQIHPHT
T4 sequence (P10721 26-976 limits assumed): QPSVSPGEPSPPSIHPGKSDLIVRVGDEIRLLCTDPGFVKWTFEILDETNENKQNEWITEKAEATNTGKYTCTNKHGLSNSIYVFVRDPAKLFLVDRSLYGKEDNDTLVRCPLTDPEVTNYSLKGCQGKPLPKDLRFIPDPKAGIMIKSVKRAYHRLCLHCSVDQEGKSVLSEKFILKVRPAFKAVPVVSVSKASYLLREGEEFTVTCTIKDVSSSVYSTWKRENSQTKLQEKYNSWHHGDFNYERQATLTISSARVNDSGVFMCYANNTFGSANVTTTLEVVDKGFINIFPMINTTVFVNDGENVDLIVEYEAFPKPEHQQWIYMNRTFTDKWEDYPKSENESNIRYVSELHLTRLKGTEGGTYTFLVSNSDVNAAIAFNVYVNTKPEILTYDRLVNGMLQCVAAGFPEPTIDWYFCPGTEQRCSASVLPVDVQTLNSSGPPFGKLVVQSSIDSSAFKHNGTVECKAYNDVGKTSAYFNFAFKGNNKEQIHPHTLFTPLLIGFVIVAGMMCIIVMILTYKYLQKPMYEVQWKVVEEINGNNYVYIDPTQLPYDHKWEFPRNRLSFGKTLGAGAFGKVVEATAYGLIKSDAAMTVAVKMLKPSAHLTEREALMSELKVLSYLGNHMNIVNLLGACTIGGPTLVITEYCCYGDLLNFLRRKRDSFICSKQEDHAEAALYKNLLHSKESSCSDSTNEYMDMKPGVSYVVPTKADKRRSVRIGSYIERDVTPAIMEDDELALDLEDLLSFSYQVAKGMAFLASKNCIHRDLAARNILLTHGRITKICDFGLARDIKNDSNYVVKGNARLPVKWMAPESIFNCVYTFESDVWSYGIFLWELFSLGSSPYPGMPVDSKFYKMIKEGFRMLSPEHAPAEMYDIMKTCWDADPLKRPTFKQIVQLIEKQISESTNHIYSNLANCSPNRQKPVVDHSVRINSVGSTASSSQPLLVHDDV
Chain of cyno c-Kit (SPR) (chain, as listed by the source): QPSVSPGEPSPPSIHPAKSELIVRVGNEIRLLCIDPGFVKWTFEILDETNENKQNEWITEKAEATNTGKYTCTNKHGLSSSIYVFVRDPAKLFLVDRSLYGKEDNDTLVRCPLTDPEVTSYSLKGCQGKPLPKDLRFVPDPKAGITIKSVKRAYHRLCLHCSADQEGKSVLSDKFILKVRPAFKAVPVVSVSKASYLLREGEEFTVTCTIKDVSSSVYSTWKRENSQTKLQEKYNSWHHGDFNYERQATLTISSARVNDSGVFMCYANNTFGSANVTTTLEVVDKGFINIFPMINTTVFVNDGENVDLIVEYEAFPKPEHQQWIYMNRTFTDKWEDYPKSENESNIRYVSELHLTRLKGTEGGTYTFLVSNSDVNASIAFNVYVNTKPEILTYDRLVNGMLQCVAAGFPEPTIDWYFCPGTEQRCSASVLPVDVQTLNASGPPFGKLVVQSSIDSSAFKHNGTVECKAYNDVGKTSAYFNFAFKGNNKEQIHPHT

binding result [1] | binding result (c-Kit on KU812 cells [2]) | Kd (human c-Kit (SPR)) | koff (human c-Kit (SPR)) | kon (human c-Kit (SPR)) | Kd (cyno c-Kit (SPR)) | koff (cyno c-Kit (SPR)) | kon (cyno c-Kit (SPR)) | Kd [3] | Kd [4] | EC50 [5] | EC50 (c-Kit on KU812 cells [6]) | EC50 [7] | EC50 (c-Kit on KU812 cells [8]) | Binder
binds | binds |  |  |  |  |  |  |  |  |  |  |  |  | 1.27/MH1 common light chain bispecific (anti-CD203c 1.27 x anti-c-Kit MH1) (bispecific antibody, V domains shown, Knob-in-hole IgG1null bispecific with human Ckappa) VH 1: QVQLVQSGAEVKKPGASVKVSCKASGYTFTDYYMNWVRQAPGQGLEWMGRIYPGSGNTYYAQKFQGRVTMTRDTSTSTVYMELSSLRSEDTAVYYCARGVYYYDYWGQGTLVTVSS VH 2: EVQLVQSGAEVKKPGESLKISCKGSGYRFTSYWIGWVRQMPGKGLEWMGIIYPGDSDTRYSPSFQGQVTISADKSISTAYLQWSSLKASDTAMYYCARKDYYYYAMDVWGQGTTVTVSS VL: DIQMTQSPSSLSASVGDRVTITCRASQGIRTNLAWFQQKPGKAPKSLIYAASSLQSGVPSRFSGSGSGTDFTLTISSLQPEDFATYYCQQYNSYPRTFGGGTKVEIK
 |  | 43 nM | 0.00919 s⁻¹ | 214000 M⁻¹ s⁻¹ | 52.3 nM | 0.0152 s⁻¹ | 291000 M⁻¹ s⁻¹ | 63.1 nM | 79.2 nM | 0.214 nM | 0.214 nM |  |  | MH1_C/F6.12_D bispecific (pI-engineered) (bispecific antibody, V domains shown, Knob-in-hole IgG1null bispecific with human Ckappa) VH 1: QVQLVQSGAEVKEPGASVKVSCKASGYTFTDYYMNWVRQAPGQGLEWMGRIYPGSGNTYYAQNFQGRVTMTRDTSTSTVYMELSSLRSEDTAVYYCARGVYYYDYWGQGTLVTVSS VH 2: QVQLVQSGAEVKKPGESLKISCKGSGYRFASNWIGWVRQMPGKGLEWMGEIYPGDSNTRYSPSFQGQVTISADKSISTAYLQWSRLKASDTAMYYCARKDYYYGIMDVWGQGTTVTVSS VL: DIQMTQSPSSLSASVGDRVTITCRASQGIRTNLAWFQQKPGKAPKSLIYAASSLQSGVPSRFSGSGSGTDFTLTISSLQPEDFATYYCQQYNSYPRTFGGGTKVEIK
 |  | 44.5 nM | 0.00949 s⁻¹ | 213000 M⁻¹ s⁻¹ | 52.4 nM | 0.0155 s⁻¹ | 295000 M⁻¹ s⁻¹ | 75.8 nM | 108 nM |  |  | 0.238 nM | 0.238 nM | FJ2156_MH1_C x F6_12B huIgG1 KIH (bispecific antibody, V domains shown, also called MH1_C/F6.12_B) VH 1: QVQLVQSGAEVKEPGASVKVSCKASGYTFTDYYMNWVRQAPGQGLEWMGRIYPGSGNTYYAQNFQGRVTMTRDTSTSTVYMELSSLRSEDTAVYYCARGVYYYDYWGQGTLVTVSS VH 2: QVQLVQSGAEVKKPGESLKISCKGSGYRFASNWIGWVRQMPGKGLQWMGEIYPGDSNTRYSPSFQGQVTISADKSISTAYLQWSSLKASDTAMYYCARKDYYYGIMDVWGQGTTVTVSS VL: DIQMTQSPSSLSASVGDRVTITCRASQGIRTNLAWFQQKPGKAPKSLIYAASSLQSGVPSRFSGSGSGTDFTLTISSLQPEDFATYYCQQYNSYPRTFGGGTKVEIK

Reference: patent publication US20260028424A1 (GRANULAR THERAPEUTICS, published 2026)
